Experimental data as given in article PMC6201953.

Legend:
[1] = target: HIV-1 HXB2 envelope glycoprotein (Env) (HIV-1 (isolate HXB2)) (UniProt P04578)
[2] = target: HIV-1 YU2 envelope glycoprotein (Env) (HIV-1 (isolate YU2)) (UniProt P35961)
[3] = target: HIV-1 HXB2 envelope glycoprotein (Env) (HIV-1 (isolate HXB2)) (UniProt P04578); remark: listed apart in the source
[4] = target: HIV-1 YU2 envelope glycoprotein (Env) (HIV-1 (isolate YU2)) (UniProt P35961); remark: listed apart in the source
[5] = target: HIV-1 HXB2 envelope glycoprotein (Env) (HIV-1 (isolate HXB2)) (UniProt P04578); remark: listed apart in the source
[6] = target: HIV-1 BG505 envelope glycoprotein (Env) (HIV-1 (isolate BG505)) (UniProt Q2N0S6)
[7] = target: HIV-1 ZM651 envelope glycoprotein (Env) (HIV-1 (isolate ZM651))

UniProt P35961, sequence (P35961 32-843): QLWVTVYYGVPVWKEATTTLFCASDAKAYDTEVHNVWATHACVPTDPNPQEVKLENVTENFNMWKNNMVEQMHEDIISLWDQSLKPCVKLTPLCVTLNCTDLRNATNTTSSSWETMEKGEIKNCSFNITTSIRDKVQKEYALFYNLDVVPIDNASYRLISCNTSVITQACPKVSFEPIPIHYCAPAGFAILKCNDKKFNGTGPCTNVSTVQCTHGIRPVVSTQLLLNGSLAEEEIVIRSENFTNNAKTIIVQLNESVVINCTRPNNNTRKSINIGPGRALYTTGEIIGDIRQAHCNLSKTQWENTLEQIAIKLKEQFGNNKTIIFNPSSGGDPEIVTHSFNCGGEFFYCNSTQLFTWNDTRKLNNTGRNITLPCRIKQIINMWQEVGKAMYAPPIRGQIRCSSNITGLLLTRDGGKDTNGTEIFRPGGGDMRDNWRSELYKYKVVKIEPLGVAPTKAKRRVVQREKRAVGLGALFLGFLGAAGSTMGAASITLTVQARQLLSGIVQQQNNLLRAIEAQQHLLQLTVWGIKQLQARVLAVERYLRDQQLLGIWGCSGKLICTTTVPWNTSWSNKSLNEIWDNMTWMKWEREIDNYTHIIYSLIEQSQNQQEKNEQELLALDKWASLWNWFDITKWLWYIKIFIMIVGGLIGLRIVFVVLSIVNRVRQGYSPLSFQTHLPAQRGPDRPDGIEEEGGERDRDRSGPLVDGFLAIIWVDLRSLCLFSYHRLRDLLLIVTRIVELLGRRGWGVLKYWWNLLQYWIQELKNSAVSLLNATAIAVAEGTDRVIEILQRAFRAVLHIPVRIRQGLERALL

| Env-mediated cell-cell fusion (SRFA), fusion level with 10 μg/mL antibody; the pair said to be blocked is CD4 (on HeLa.CD4-DSP2 cells) with gp120 [1] | Substance | Env-mediated cell-cell fusion (SRFA), CHO-DSP1 cells with HIV-1 YU2 Env and HeLa.CD4-DSP2 cells with CCR5, fusion level at 260 nM (% of untreated control) [2] | Env-mediated cell-cell fusion (SRFA), CHO-DSP1 cells with HIV-1 HXB2 Env and HeLa.CD4-DSP2 cells, fusion level at 1 μg/mL (Fig 1D; concentration dependent over 10-1000 ng/mL, Fig 3A) (% of untreated control) [3] | Env-mediated cell-cell fusion (SRFA), fusion level at 260 nM (% of untreated control) [3] | IC50 of neutralisation of HIV-1 pseudovirus (TZM-bl assay) [4] [µg/mL] | IC90 of neutralisation of HIV-1 pseudovirus (TZM-bl assay) [4] [µg/mL] | IC50 of neutralisation of HIV-1 pseudovirus (TZM-bl assay) [5] [µg/mL] | IC90 of neutralisation of HIV-1 pseudovirus (TZM-bl assay) [5] [µg/mL] | IC50 of neutralisation of HIV-1 pseudovirus (TZM-bl assay) [6] [µg/mL] | IC90 of neutralisation of HIV-1 pseudovirus (TZM-bl assay) [6] [µg/mL] | IC50 of neutralisation of HIV-1 pseudovirus (TZM-bl assay) [7] [µg/mL] | IC90 of neutralisation of HIV-1 pseudovirus (TZM-bl assay) [7] [µg/mL] |
| --- | --- | --- | --- | --- | --- | --- | --- | --- | --- | --- | --- | --- |
| 53 % of control | VRC03 (antibody) | – | – | – | – | – | – | – | – | – | – | – |
| – | eCD4-Ig^mim2 (Fc fusion) | 30 | 18 | 2 | 0.003 | 0.009 | 0.0008 | 0.002 | 0.258 | 0.83 | 0.468 | 1.65 |
